Test results as given in PMC10545826.

Tests used:
[1] = target: human FcγRIIIa (CD16a) V158 (human); test: SPR; Biacore 8K; His-tagged FcγRIIIa captured (aimed 60 RU) by anti His-tag antibody on a CM5 chip; antibody samples as analytes (trastuzumab samples 360 to 22.5 nM); PBS with 0.005% Tween-20; 1:1 Langmuir global fit; temperature of the printed KD not stated (measured at 21-29 °C)
[2] = target: human FcγRIIIa (CD16a) V158 (human); test: SPR; Biacore 8K; His-tagged FcγRIIIa captured (aimed 60 RU) by anti His-tag antibody immobilised on a CM5 chip; antibody samples as analytes (360 to 22.5 nM for the trastuzumab samples); PBS with 0.005% Tween-20; global fit, 1:1 Langmuir model; measured at 21-29 °C, the temperature of Table S1 not given
[3] = target: human FcγRIIIa (CD16a) V158 (human); test: SPR; van't Hoff analysis of the temperature dependence of KD (21, 23, 25, 27, 29 °C), parameters at 25 °C; FcγRIIIa captured by anti His-tag antibody, antibody as analyte; PBS with 0.005% Tween-20
[4] = target: human FcγRIIIa (CD16a) V158 (human); test: SPR
Target sequence in this assay (P08637 17-208 F176V): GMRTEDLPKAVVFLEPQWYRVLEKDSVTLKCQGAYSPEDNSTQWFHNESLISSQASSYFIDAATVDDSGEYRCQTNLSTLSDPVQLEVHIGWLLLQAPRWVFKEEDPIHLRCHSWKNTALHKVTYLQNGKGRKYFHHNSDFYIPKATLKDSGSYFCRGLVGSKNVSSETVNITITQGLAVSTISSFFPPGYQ

| Substance | koff [2] | kon [2] | further results |
| --- | --- | --- | --- |
| Rituximab (Rituxan), an anti CD20 human antibody | 0.0331 s⁻¹ | 540000 M⁻¹ s⁻¹ | Kd [1]: 61.4 nM |
| afucosyl rituximab | – | – | Kd [4]: 10.9 nM |
| divalent DOTA-conjugated trastuzumab | – | – | Kd [4]: 3.6 nM |
| divalent DOTA-conjugated trastuzumab (antibody) | 0.0089 s⁻¹ | 2.46e+06 M⁻¹ s⁻¹ | – |
| monovalent DOTA-conjugated trastuzumab (antibody) | 0.0116 s⁻¹ | 950000 M⁻¹ s⁻¹ | Kd [2]: 12.2 nM |

More lines, main results first:

| koff [2] | kon [2] | Substance | further results |
| --- | --- | --- | --- |
| 0.0281 s⁻¹ | 550000 M⁻¹ s⁻¹ | Trastuzumab (anti-HER2 humanized IgG1) (antibody) | Kd [1]: 51 nM; dH [3]: -35.9 kcal/mol |
| 0.0108 s⁻¹ | 990000 M⁻¹ s⁻¹ | afucosyl rituximab (antibody) | fold increase of affinity relative to rituximab [1]: 22 fold |
